Data taken from the supplement of paper PMC10567573.

B1: HSP90AB1 (parent)
chain: YHTSQSGDEMTSLSEYVSRMKETQ
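Further: lentivirally expressed fusions sorted by FACS into six bins by GFP to DsRed ratio, PSI derived from sequencing read proportions per bin multiplied by bin number.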

Variants of: B1
Assay: protein stability index of a GFP-peptide fusion (GPS, HEK-293T) (PSI 1-6); higher = more stable
Details: c terminus: a fixed tail appended
Work on YHTSQSCDEMTSLSEYVSRMKETQ yielded a protein stability index of 3.33. Variant YHTSQSDDEMTSLSEYVSRMKETQ has a protein stability index of 4.08. YHTSQSPDEMTSLSEYVSRMKETQ showed a protein stability index of 3.74. Work on YHTSQSFDEMTSLSEYVSRMKETQ yielded a protein stability index of 3.17. With YHTSQSKDEMTSLSEYVSRMKETQ the protein stability index was 3.33. YHTSQSTDEMTSLSEYVSRMKETQ gave a protein stability index of 4.32. In the case of YHTSQSEDEMTSLSEYVSRMKETQ, the protein stability index is reported as 4.12. With YHTSQSNDEMTSLSEYVSRMKETQ the protein stability index was 2.83. Variant YHTSQSIDEMTSLSEYVSRMKETQ has a protein stability index of 3.29. For YHTSQSMDEMTSLSEYVSRMKETQ, the protein stability index was 3.47. YHTSQSWDEMTSLSEYVSRMKETQ gave a protein stability index of 2.99. Variant YHTSQSHDEMTSLSEYVSRMKETQ has a protein stability index of 3.65. YHTSQSQDEMTSLSEYVSRMKETQ gave a protein stability index of 3.78. For YHTSQSLDEMTSLSEYVSRMKETQ, the protein stability index was 3.61. With YHTSQSADEMTSLSEYVSRMKETQ the protein stability index was 3.73. YHTSQSYDEMTSLSEYVSRMKETQ gave a protein stability index of 2.98. With YHTSQSRDEMTSLSEYVSRMKETQ the protein stability index was 3.44. YHTSQSVDEMTSLSEYVSRMKETQ showed a protein stability index of 3.26. For YHTSQSSDEMTSLSEYVSRMKETQ, the protein stability index was 3.67. For YHTSQSGDEMMSLSEYVSRMKETQ, the protein stability index was 3.07. Work on YHTSQSGDEMSSLSEYVSRMKETQ yielded a protein stability index of 3.62. YHTSQSGDEMCSLSEYVSRMKETQ gave a protein stability index of 3.62. Variant YHTSQSGDEMYSLSEYVSRMKETQ has a protein stability index of 2.74. Variant YHTSQSGDEMISLSEYVSRMKETQ has a protein stability index of 3.12. Work on YHTSQSGDEMESLSEYVSRMKETQ yielded a protein stability index of 3.9. With YHTSQSGDEMHSLSEYVSRMKETQ the protein stability index was 3.64. YHTSQSGDEMPSLSEYVSRMKETQ showed a protein stability index of 3.57. In the case of YHTSQSGDEMGSLSEYVSRMKETQ, the protein stability index is reported as 3.77. Variant YHTSQSGDEMNSLSEYVSRMKETQ has a protein stability index of 3.56. YHTSQSGDEMKSLSEYVSRMKETQ showed a protein stability index of 4.58. For YHTSQSGDEMDSLSEYVSRMKETQ, the protein stability index was 3.81. For YHTSQSGDEMVSLSEYVSRMKETQ, the protein stability index was 3.68. YHTSQSGDEMLSLSEYVSRMKETQ gave a protein stability index of 3.35. In the case of YHTSQSGDEMWSLSEYVSRMKETQ, the protein stability index is reported as 2.01. YHTSQSGDEMRSLSEYVSRMKETQ gave a protein stability index of 3.53. YHTSQSGDEMASLSEYVSRMKETQ showed a protein stability index of 3.51. YHTSQSGDEMFSLSEYVSRMKETQ gave a protein stability index of 2.78. Variant YHTSQSGDEMTSLWEYVSRMKETQ has a protein stability index of 1.81. Variant YHTSQSGDEMTSLKEYVSRMKETQ has a protein stability index of 3.5. For YHTSQSGDEMTSLDEYVSRMKETQ, the protein stability index was 2.96. YHTSQSGDEMTSLTEYVSRMKETQ showed a protein stability index of 3.71. For YHTSQSGDEMTSLNEYVSRMKETQ, the protein stability index was 3.24. YHTSQSGDEMTSLQEYVSRMKETQ showed a protein stability index of 3.54. YHTSQSGDEMTSLEEYVSRMKETQ gave a protein stability index of 4.31. With YHTSQSGDEMTSLMEYVSRMKETQ the protein stability index was 3.25. Work on YHTSQSGDEMTSLFEYVSRMKETQ yielded a protein stability index of 3.05. Variant YHTSQSGDEMTSLLEYVSRMKETQ has a protein stability index of 2.65. YHTSQSGDEMTSLAEYVSRMKETQ gave a protein stability index of 3.66. YHTSQSGDEMTSLYEYVSRMKETQ showed a protein stability index of 3.11. YHTSQSGDEMTSLREYVSRMKETQ gave a protein stability index of 3.57. For YHTSQSGDEMTSLVEYVSRMKETQ, the protein stability index was 3.37. For YHTSQSGDEMTSLPEYVSRMKETQ, the protein stability index was 3.74. Work on YHTSQSGDEMTSLGEYVSRMKETQ yielded a protein stability index of 3.78. In the case of YHTSQSGDEMTSLCEYVSRMKETQ, the protein stability index is reported as 3.44. For YHTSQTGDEMTSLSEYVSRMKETQ, the protein stability index was 3.46. With YHTSQYGDEMTSLSEYVSRMKETQ the protein stability index was 2.06. With YHTSQVGDEMTSLSEYVSRMKETQ the protein stability index was 3.21. YHTSQRGDEMTSLSEYVSRMKETQ showed a protein stability index of 3.56. With YHTSQPGDEMTSLSEYVSRMKETQ the protein stability index was 3.02. With YHTSQQGDEMTSLSEYVSRMKETQ the protein stability index was 2.83. In the case of YHTSQWGDEMTSLSEYVSRMKETQ, the protein stability index is reported as 1.88. For YHTSQNGDEMTSLSEYVSRMKETQ, the protein stability index was 4.08. YHTSQSGDEMTTLSEYVSRMKETQ gave a protein stability index of 3.88. Variant YHTSQSGDEMTVLSEYVSRMKETQ has a protein stability index of 2.99. Work on YHTSQSGDEMTILSEYVSRMKETQ yielded a protein stability index of 2.92. With YHTSQSGDEMTDLSEYVSRMKETQ the protein stability index was 4.14. YHTSQSGDEMTFLSEYVSRMKETQ gave a protein stability index of 2.98. For YHTSQSGDEMTWLSEYVSRMKETQ, the protein stability index was 2.6. Work on YHTSQSGDEMTYLSEYVSRMKETQ yielded a protein stability index of 2.81. YHTSQSGDEMTCLSEYVSRMKETQ showed a protein stability index of 2.87. Variant YHTSQSGDEMTALSEYVSRMKETQ has a protein stability index of 3.21. YHTSQSGDEMTNLSEYVSRMKETQ showed a protein stability index of 3.64. YHTSQSGDEMTPLSEYVSRMKETQ gave a protein stability index of 3.52. In the case of YHTSQSGDEMTELSEYVSRMKETQ, the protein stability index is reported as 4.28. YHTSQSGDEMTKLSEYVSRMKETQ showed a protein stability index of 3.12. YHTSQSGDEMTGLSEYVSRMKETQ gave a protein stability index of 3.75. For YHTSQSGDEMTLLSEYVSRMKETQ, the protein stability index was 2.49. With YHTSQSGDEMTQLSEYVSRMKETQ the protein stability index was 3.36. Variant YHTSQSGDEMTHLSEYVSRMKETQ has a protein stability index of 3.52. YHTSQSGDYMTSLSEYVSRMKETQ gave a protein stability index of 2.58. YHTSQSGDCMTSLSEYVSRMKETQ showed a protein stability index of 2.48. Variant YHTSQSGDMMTSLSEYVSRMKETQ has a protein stability index of 2.52. Variant YHTSQSGDPMTSLSEYVSRMKETQ has a protein stability index of 3.51. YHTSQSGDQMTSLSEYVSRMKETQ gave a protein stability index of 3.43. With YHTSQSGDRMTSLSEYVSRMKETQ the protein stability index was 1.99. Work on YHTSQSGDHMTSLSEYVSRMKETQ yielded a protein stability index of 3.11. In the case of YHTSQSGDVMTSLSEYVSRMKETQ, the protein stability index is reported as 3.12. With YHTSQSGDWMTSLSEYVSRMKETQ the protein stability index was 1.87. YHTSQSGDLMTSLSEYVSRMKETQ showed a protein stability index of 2.09. In the case of YHTSQSGDFMTSLSEYVSRMKETQ, the protein stability index is reported as 2.33. YHTSQSGDIMTSLSEYVSRMKETQ gave a protein stability index of 2.77. Variant YHTSQSGDGMTSLSEYVSRMKETQ has a protein stability index of 3.67. For YHTSQSGDAMTSLSEYVSRMKETQ, the protein stability index was 2.78. With YHTSQSGDSMTSLSEYVSRMKETQ the protein stability index was 2.91.
